# Measured values published in patent US20210032330A1 (PHANES THERAPEUTICS, published 2021).
# Molecular target: T1, human T-cell immunoglobulin and mucin-domain containing molecule 3 (TIM-3) (human, UniProt Q8TDQ0 22-200, limits assumed)
# T1 construct: also called Human TIM-3
# Test: BLI (OCTET Red96), mAb on anti-mouse Fc biosensor, antigen in solution, 1:1 model
# Description: Binding experiments were performed on OCTET Red96 at 25° C. Antibodies were loaded onto Anti-Mouse Fc (AMC) biosensors. Loaded sensors were dipped into serial dilutions of antigen. Kinetic constants were calculated using a monovalent (1:1) model. The assay buffer was PBS supplemented with 0.1% BSA, 500 mM NaCl, 0.02% Tween-20, pH 7.2.
row,Binder,Kd [nM]
1,"anti-TIM-3 monoclonal antibody 20-L10-A (antibody, V domains shown, Mouse hybridoma mAb; captured on anti-mouse Fc biosensors) VH: QIQLVQSGPELKKPGETVKISCKASGYTFTNYGMNWVKQAPGKVLKWMVWINTYTGEPTYADDFKGRFAFSLETSASTAYLQINNLKNEDTATYFCARDAMDYWGQGTSVTVSS VL: DVVMTQTPLSLPVSLGDQASISCRSSQSLVHSNGNTYLHWYLQKPGQSPKLLIYKVSNRFSGVPDRFSGSGSGTDFTLKISRVEAEDLGVYFCSQNTHVPWTFGGGTKLEIK",10
2,"anti-TIM-3 monoclonal antibody 15-L23-A (antibody, V domains shown, Mouse hybridoma mAb; captured on anti-mouse Fc biosensors) VH: QIQLVQSGPELKKPGETVKISCRASGYTFTNYGMNWVKQAPGKGLKWMVWINTYTGEPTFADDFKGRFAFSLETSASTAYLQIINLKNEDTATYFCARDTMDYWGQGTSVTVSS VL: DIVMTQTPLSLPVSLGDQASISCRSSQSLVHSNGNTYLHWYLQKPGQSPKLLIYKVSNRFSGVPDRFSGSGSGTDFTLKISRVEAEDLGVYFCSQNTHVPWTFGGGTKLEIK",13
3,"anti-TIM-3 monoclonal antibody 1-A19-A (antibody, V domains shown, Mouse hybridoma mAb; captured on anti-mouse Fc biosensors) VH: EVQLQQFGAELVKPGASVKISCKASGYTFTDYNMDWVKQSHGKSLEWIGDIDPNYDITTYNQKFKGKATLTVDKSSSTAYMELRSLTSEDTAVYYCARGGHYRYDGYYALDYWGQGTSVTVSS VL: DIVLTQSPASLAVSLGQRATISCKASQSVDYDGDSYMNWYQQKPGQPPKLLIYAASNLESGIPARFSGSGSGTDFTLNIHPVEEEDAATYYCQQSNEDPFTFGSGTKLEIK",2.2

# The remaining lines, values ahead:
row,Kd [nM],Binder
1,3.1,"anti-TIM-3 monoclonal antibody 10-O15-A (antibody, V domains shown, Mouse hybridoma mAb; captured on anti-mouse Fc biosensors) VH: QVQLQQSGADLVRPGASVKLSCKALGYTFTDYEMHWVKQTPVHGLEWIGAIHPGSGGTAYNQKFKGKATLTADKSSSTAYMELSSLTSEDSAVYFCSRSYYRYTGYFDVWGAGTTVTVSS VL: DIVLTQSPASLAVSLGQRATISCRASKSVSASGYSYMHWYQQKPGQPPKLLIYLASNLESGVPARFSGSGSGTDFTLNVHPVEEEDAATYYCQHSRELPFTFGSGTKLEIK"
2,1.6,"anti-TIM-3 monoclonal antibody 8-F3-A (antibody, V domains shown, Mouse hybridoma mAb; captured on anti-mouse Fc biosensors) VH: QIQLVQSGPELKKPGETVKISCKASGYTFTNYGMNWVKQAPGKGLKWMAWINTYTGEPTYADDFKGRFAFSLETSASTAYLQINNLKNEDTATYFCARDLEDYWGQGTTLTVSS VL: DVVMTQTPLSLPVSLGDQASISCRSSQSLVHSNGNTYLHWYLQKPGQSPKLLIYKVSNRFSGVPDRFSGSGSGTDFTLKISRVEAEDLGVYFCSQTTHVPWTFGGGTKLEIK"
3,2.7,"anti-TIM-3 monoclonal antibody 16-J5-A (antibody, V domains shown, Mouse hybridoma mAb; captured on anti-mouse Fc biosensors) VH: DVQLVESGGGLVQPGGSRKLSCAASGFTFSSFGMNWVRQAPEKGLEWVAYISSGSSTIYYADTVKGRFTISRDNPKNTLFLQMTSLRSEDTAMYYCARWGRWADFDYWGQGTTLTVSS VL: not shown"

# Molecular target: T1, human T-cell immunoglobulin and …
# Test: competition ELISA: pre-equilibrated mixture of mAb and human TIM3(ECD)-huFc on plate-coated phosphatidylserine (PtdSer, a lipid), anti-huFc-HRP detection, % inhibition
# Description: ELISA plates were coated with PtdSer or PtdChol, washed and incubated with a pre-equilibrated mixture of purified antibodies at various concentrations and TIM3(ECD)-huFc. The plates were washed and then the signal was detected by incubation with HRP-coupled anti-huFc secondary antibody and then a HRP substrate. TIM-3 binding to PtdSer was used as 100% signal and TIM-3 binding to PtdChol as zero (background) to calculate percent of inhibition by a given mAb.
# To determine the effect of anti-TIM-3 antibodies on the interaction of TIM-3 with phosphatidylserine (PtdSer), 384-well ELISA plates were coated with PtdSer or phosphatidylcholine (PtdChol) at room temperature. The wells were washed using PBS supplemented with 0.1% Tween-20 and then blocked using PBS supplemented with 2% bovine serum albumin (BSA). […] The plates were washed and then incubated with HRP-coupled anti-huFc secondary antibody. Plates were washed, incubated with an HRP substrate, and read using a POLARstar Omega Microplate (BMG LABTECH). The assay was performed in triplicate.
binding result,IC50 (read off the curve) [nM],Binder
binds,–,"6-H6-A (antibody, V domains shown, also called anti-TIM-3 monoclonal antibody 6-H6-A) VH: EVQLQQFGAELVKPGASVKISCKASGYTFTDYNMDWVKQSHGKSLEWIGDIDPNYDSTTYNQKFKGKATLTVDKSSSTAYMELRSLTSEDTAVYYCARGGHYRYDGYYAMDYWGQGTSVTVSS VL: DIVLTQSPASSAVSLGQRATFSCRASQSVSTSSYSFMHWYQQKPGQPPKLLIKYASNLESGVPARFSGSGSGTDFTLNIHPVEEEDTATYYCQHSWEIPPTFGGGTNLEIK"
–,~7,"7-N2-A (antibody, V domains shown, also called anti-TIM-3 monoclonal antibody 7-N2-A) VH: QVQLKESGPGLVAPSQSLSITCTVSGFSLTGFGVNWVRQPPGKGLEWLGMIWGDGSTDYNSTLKSRLSISKDNSKSQVFLKMNSLQTDDTARYYCARDYYGYVGNAMDYWGQGTSVTVSS VL: DIVMSQSPSSLAVSAGEKVTMSCKSSQSLLNSRTRKNYLAWYQQKPGQSPKLLIYWASTRESGVPDRFTGSGSGTDFTLTISSVQAEDLAVYYCKQSYNHMYTFGGGTKLEIK"

# Molecular target: T1, human T-cell immunoglobulin and …
# Test: ELISA, recombinant human TIM-3(ECD)-6His coated on the plate, anti-human IgG-HRP detection, absorbance at 450 nm
# Description: Recombinant human TIM-3(ECD)-6His in carbonate coating buffer was coated on an ELISA plate at 4° C. overnight.
row,EC50 (read off the curve) [nM],Binder
1,~0.07,"H1L1 (antibody, V domains shown, also called humanized version of anti-TIM-3 mAb 16-K5-A, VH H1 with VL L1) VH: EVQLVESGGGLVQPGGSLRLSCAASGYTFTSSDINWVRQAPGKGLVWIGWIFPGDGSTKYTPSLKDQATLSTDKAKNTAYLQMNSLRAEDTAVYFCARGLDYWGQGTLVTVSS VL: DIQMTQSPSSLSASVGDRVTITCKASQDINSYLGWFQQKPGKAPKTLIYRADRLVDGVPSRFSGSGSGQDYTFTISSLQPEDIATYYCLQYDEFPLTFGQGTKLEIK"
2,~0.09,"H2L1 (antibody, V domains shown, also called humanized version of anti-TIM-3 mAb 16-K5-A, VH H2 with VL L1) VH: EVQLVESGGGLVQPGGSLRLSCAASGYTFTSSDINWVRQAPGKGLVWIGWIFPGDGSTKYTPSLKDQATLSTDLAKNTAYLQMNSLRAEDTAVYFCARGLDYWGQGTLVTVSS VL: DIQMTQSPSSLSASVGDRVTITCKASQDINSYLGWFQQKPGKAPKTLIYRADRLVDGVPSRFSGSGSGQDYTFTISSLQPEDIATYYCLQYDEFPLTFGQGTKLEIK"
